The supplement of paper PMC7877785
± gives the uncertainty stated by the source.

Experiment: self-splicing fitness, log relative to wild type (ln ratio); higher = more splicing; Tetrahymena group I intron in knt gene, E. coli kanamycin selection, DiMSum; sequences stand for … in CUCUCU…GGAGGGAAAAGUUAUCAGGCAUGCACCUGGUAGCUAGUCUUUAAACCAAUAGAUUGCAUCGGUUUAAAAGGCAAGACCGUCAAAUUGCGGGAAAGGGGUCAACAGCCGUUCAGUACCAAGUCUCAGGGGAAACUUUGAGAUGGCCUUGCAAAGGGUAUGGUAAUAAGCUGACGGACAUGGUCCUAACCACGCAGCCAAGUCCUAAGUCAACAGAUCUUCUGUUGAUAUGGAUGCAGUUCACAGACUAAAUGUCGGUCGGGGAAGAUGUAUUCUUCUCAUAAGAUAUAGUCGGACCUCUCCUUAAUGGGAGCUAGCGGAUGAAGUGAUGCAACACUGGAGCCGCUGGGAACUAAUUUGUAUGCGAAAGUAUAUUGAUUAGUUUUGGAGUACUCGUGGUCG
Outline: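 Pooled colonies went to amplicon sequencing on an Illumina HiSeq 2500 after six replicate transformations. The plates were LB agar with 100 μg/mL carbenicillin, 50 μM IPTG and 0.2% rhamnose, with or without 25 μg/mL kanamycin, incubated overnight at 37°C or 30°C. The E. coli BL21(DE3) library had all eight P1ex-region intron nucleotides randomised, the intron placed in the knt kanamycin-resistance gene on pET-22b(+). DiMSum fitness is the error-weighted combination of replicate fold changes, kanamycin against none, normalised to wild type.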

Sequence | self-splicing fitness (ln) (37 °C) | self-splicing fitness (ln) (30 °C)
CGGGAGCAAUAUUACGAUUA | -3.69 ± 0.42 | 
CGUCAGCAAUAUUACGCGAA | -2.51 ± 0.19 | -2.93 ± 0.21
AGCUAGCAAUAUUACGUGUG | -1.7 ± 0.079 | -2.2 ± 0.06
GGGUAGCAAUAUUACGGUUC | 0.258 ± 0.13 | -0.821 ± 0.095
GAGUAGCAAUAUUACGAUUA | -0.317 ± 0.081 | -0.577 ± 0.092
GUAGAGCAAUAUUACGGCCC | -0.935 ± 0.32 | -1.36 ± 0.29
GUAAAGCAAUAUUACGUACA | 0.111 ± 0.09 | -0.0825 ± 0.078
AUUUAGCAAUAUUACGCGUC | -2.96 ± 0.47 | -3.21 ± 0.3
GCCAAGCAAUAUUACGAACG | -1.46 ± 0.13 | -2.71 ± 0.11
UAGUAGCAAUAUUACGGAUC | -0.854 ± 0.079 | -2.87 ± 0.11
UUUUAGCAAUAUUACGCCCG |  | -0.629 ± 0.33
AACAAGCAAUAUUACGUCAA | -1.59 ± 0.11 | -1.68 ± 0.094
UCGUAGCAAUAUUACGCAUG | -0.84 ± 0.16 | -2.33 ± 0.18
AACGAGCAAUAUUACGUGGG | -2.7 ± 0.12 | -3.94 ± 0.15
UCUGAGCAAUAUUACGUGCU |  | -3.52 ± 0.4
GGAGAGCAAUAUUACGAGCA | -1.86 ± 0.34 | -1.17 ± 0.35
GAGGAGCAAUAUUACGGAAA | -2.94 ± 0.26 | -3.13 ± 0.16
GGUUAGCAAUAUUACGUCUA | -0.565 ± 0.093 | -0.569 ± 0.12
UCAGAGCAAUAUUACGCAAC | -1.91 ± 0.29 | -3.8 ± 0.48
UUACAGCAAUAUUACGGCGC | -0.508 ± 0.13 | -2.88 ± 0.18
CUGUAGCAAUAUUACGUUCA | -1.45 ± 0.15 | -3.47 ± 0.24
GGCUAGCAAUAUUACGGAAA | -1.92 ± 0.29 | -2.79 ± 0.41
AGUUAGCAAUAUUACGUCUG | -1.72 ± 0.11 | -1.43 ± 0.074
CCACAGCAAUAUUACGGUAU | -2.6 ± 0.16 | -3.97 ± 0.19
GACUAGCAAUAUUACGAUGC | 0.0502 ± 0.082 | -0.221 ± 0.062

Sequence | self-splicing fitness (ln) (37 °C) | self-splicing fitness (ln) (30 °C)
AGUCAGCAAUAUUACGUGAG | -0.0397 ± 0.086 | -0.691 ± 0.054
AUAGAGCAAUAUUACGUACU | 0.124 ± 0.14 | -0.65 ± 0.12
UGCCAGCAAUAUUACGCUGC | -2.47 ± 0.28 | -3.85 ± 0.31
CCCAAGCAAUAUUACGUGAC | -2.03 ± 0.19 | -3.91 ± 0.25
CCGGAGCAAUAUUACGAAUG | 0.21 ± 0.097 | -1.1 ± 0.074
AUGUAGCAAUAUUACGCCAA | -1.5 ± 0.19 | -0.877 ± 0.19
CUAUAGCAAUAUUACGGAUA | -2.24 ± 0.37 | 
AUGUAGCAAUAUUACGUUAA | -2.3 ± 0.14 | -3.07 ± 0.22
GGUUAGCAAUAUUACGGGGU | -0.0656 ± 0.17 | -3.61 ± 0.4
AAAUAGCAAUAUUACGAAGA | -1.1 ± 0.17 | -2.26 ± 0.26
AAGCAGCAAUAUUACGGUGA | -1.15 ± 0.092 | -0.827 ± 0.1
GUCGAGCAAUAUUACGUCGA | -2.65 ± 0.44 | -3.97 ± 0.42
ACCAAGCAAUAUUACGUGGA | -1.49 ± 0.11 | -2.92 ± 0.14
UGGUAGCAAUAUUACGCGCA | 0.351 ± 0.11 | -0.453 ± 0.1
UGUAAGCAAUAUUACGAACC | 0.667 ± 0.32 | -0.477 ± 0.22
CGUAAGCAAUAUUACGACAU | -1.8 ± 0.035 | -3.255 ± 0.022
CAAGAGCAAUAUUACGAUAC |  | -2.8 ± 0.34
CCGCAGCAAUAUUACGCAUU | -3.44 ± 0.19 | -3.28 ± 0.2
AGCAAGCAAUAUUACGCAUC | -3.73 ± 0.24 | -2.72 ± 0.093
AAAUAGCAAUAUUACGGAAA | -1.53 ± 0.17 | -2.87 ± 0.26
CCCUAGCAAUAUUACGGGAG | -1.79 ± 0.14 | -3.67 ± 0.18
AUCCAGCAAUAUUACGUAUG | -2.05 ± 0.16 | -3.79 ± 0.2
CGGUAGCAAUAUUACGAGUG | 0.142 ± 0.17 | -0.671 ± 0.098
GCGAAGCAAUAUUACGACGC |  | -1.98 ± 0.47
CUUUAGCAAUAUUACGACUU | -3.6 ± 0.46 | 

Sequence | self-splicing fitness (ln) (37 °C) | self-splicing fitness (ln) (30 °C)
UAGGAGCAAUAUUACGGCUC |  | -2.64 ± 0.24
UAUAAGCAAUAUUACGGUAA | -0.715 ± 0.14 | -2.02 ± 0.2
GAAGAGCAAUAUUACGCUUA | -1.3 ± 0.23 | -3.49 ± 0.33
ACGUAGCAAUAUUACGCACA | -0.501 ± 0.13 | -0.463 ± 0.12
AGCGAGCAAUAUUACGGACG | -1.9 ± 0.36 | 
CCGAAGCAAUAUUACGCCCC | -2.89 ± 0.47 | -1.26 ± 0.24
CGAGAGCAAUAUUACGUUCG | -1.73 ± 0.23 | -3.2 ± 0.2
CAGGAGCAAUAUUACGCUAG | -1.1 ± 0.27 | -1.28 ± 0.23
AAUAAGCAAUAUUACGACAC | -0.462 ± 0.16 | -1.12 ± 0.16
AAAAAGCAAUAUUACGUGAU | -0.588 ± 0.09 | -2.07 ± 0.072
UACCAGCAAUAUUACGCUCA | 0.378 ± 0.081 | 0.178 ± 0.073
UCAAAGCAAUAUUACGGUAA | -0.268 ± 0.13 | -2.48 ± 0.16
GACGAGCAAUAUUACGUCUC | -1.23 ± 0.28 | -3.48 ± 0.36
AUCAAGCAAUAUUACGGGCC | -0.86 ± 0.29 | -2.78 ± 0.2
CGAAAGCAAUAUUACGCUAA | -1.53 ± 0.21 | -3.88 ± 0.4
AUCUAGCAAUAUUACGCUAU | -1.49 ± 0.14 | -3.15 ± 0.21
AGUUAGCAAUAUUACGGACA | 0.372 ± 0.13 | -0.912 ± 0.12
GAAGAGCAAUAUUACGCGUU | -3.12 ± 0.28 | -3.69 ± 0.33
CAGAAGCAAUAUUACGCAUA | -2.02 ± 0.18 | -3.68 ± 0.24
UGUUAGCAAUAUUACGUUCU | -0.157 ± 0.16 | -1.29 ± 0.14
AUGCAGCAAUAUUACGUAGU | -0.542 ± 0.089 | -1.46 ± 0.088
ACUAAGCAAUAUUACGAUUG | -1.5 ± 0.14 | -2.62 ± 0.13
GGCGAGCAAUAUUACGGGUU | -1.32 ± 0.13 | -2.52 ± 0.15
UGGAAGCAAUAUUACGUGGA | -0.926 ± 0.12 | -2.88 ± 0.16
AUACAGCAAUAUUACGUCAG | -1.23 ± 0.13 | -3.05 ± 0.13

Sequence | self-splicing fitness (ln) (37 °C) | self-splicing fitness (ln) (30 °C)
CAAGAGCAAUAUUACGUAAA | -3.01 ± 0.26 | -4.16 ± 0.29
UGCAAGCAAUAUUACGAGUA | 0.181 ± 0.083 | -0.888 ± 0.083
AACCAGCAAUAUUACGUCAG | -1.49 ± 0.086 | -2.3 ± 0.079
CUAGAGCAAUAUUACGCCUU | -0.994 ± 0.24 | -3.42 ± 0.19
CUAUAGCAAUAUUACGCAUU | -2.95 ± 0.31 | -5.27 ± 0.38
UAAUAGCAAUAUUACGCAAU | -2.4 ± 0.26 | -3.5 ± 0.23
UUUUAGCAAUAUUACGAUCU | -0.72 ± 0.15 | -0.719 ± 0.13
UACUAGCAAUAUUACGAGAG | -2.43 ± 0.18 | -2.94 ± 0.13
UGCAAGCAAUAUUACGACGC | -0.865 ± 0.24 | -1.44 ± 0.4
CACGAGCAAUAUUACGCGCG | -1.25 ± 0.18 | -2.9 ± 0.24
GCAAAGCAAUAUUACGUGGU | -2.59 ± 0.15 | -3.38 ± 0.15
UCUUAGCAAUAUUACGAUCG | -0.631 ± 0.19 | -1.44 ± 0.19
GUAAAGCAAUAUUACGCGGG | -2.08 ± 0.19 | -1.74 ± 0.12
GAUUAGCAAUAUUACGAAGU | -0.783 ± 0.12 | -2.54 ± 0.16
GAGCAGCAAUAUUACGCGCG | 0.406 ± 0.12 | -1.25 ± 0.1
AAAUAGCAAUAUUACGUUGG | -2.57 ± 0.21 | -4.2 ± 0.22
UCAGAGCAAUAUUACGGUGA | -0.193 ± 0.1 | -0.792 ± 0.084
UCUAAGCAAUAUUACGUUAG | -1.04 ± 0.1 | -2.19 ± 0.1
GGCGAGCAAUAUUACGCUCU | -2.06 ± 0.2 | -2.72 ± 0.23
AUUAAGCAAUAUUACGCUGA | -0.862 ± 0.28 | -2.36 ± 0.41
AAAUAGCAAUAUUACGACUC | -0.335 ± 0.21 | -0.664 ± 0.17
UCAGAGCAAUAUUACGCGGG | -1.99 ± 0.23 | -2.22 ± 0.14
CAGGAGCAAUAUUACGCUGG | -0.934 ± 0.24 | -1.96 ± 0.26
